Data taken from patent US20200181259A1.
Where two headings read alike, the source gives them in different places.

What was measured:
[1] = target: human CD47 overexpressed on CHO cells (human) (UniProt Q08722); assay: flow cytometry competition on CHO-hCD47 cells against 200 nM mouse Fc-labelled SIRPα
[2] = target: human CD47 overexpressed on CHO cells (human) (UniProt Q08722); assay: as above; remark: listed apart in the source

B1: AB6.12, control humanized anti-CD47 antibody transiently expressed in 293 HEK cells (antibody, from another filing, V domains shown)
VH: QMQLVQSGAEVKKTGSSVKVSCKASGFNIKDYYLHWVRQAPGQALEWMGWIDPDQGDTEYAQKFQDRVTITRDRSMSTAYMELSSLRSEDTAMYYCNAAYGSSSYPMDYWGQGTTVTV
VL: NIQMTQSPSAMSASVGDRVTITCKASQDIHRYLSWFQQKPGKVPKHLIYRANRLVSGVPSRFSGSGSGTEFTLTISSLQPEDFATYYCLQYDEFPYTFGGGTKVEIK
IC50 [1]: 3.38 nM
IC50 [2]: 1.77 nM
